Source: the supplement of paper PMC10724198

How the values were obtained:
Saccharomyces cerevisiae [1] = test: protein stability index of tFT-peptide fusion in wild type (PSI (0-1 scale)); higher = more stable (slower turnover); conditions: genetic background: wild type
Method: (§1)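 MPS profiling in S. cerevisiae of two library types built from selected 12-aa C-degron peptides (IN1, IN2, LN1, LN3, VN2, R1-R5, W1-W3, Atg1 and Rpa12 C-termini): saturation mutagenesis libraries and C-terminal +1 capping libraries (13 aa). Each peptide is fused to the C-terminus of a sfGFP-mCherry timer, after a GGGS linker. Cells are FACS-sorted into 8 mCherry/sfGFP bins and sequenced. PSI runs from 0 (unstable) to 1 (stable), measured once in wild type and in the das1Δ or doa10Δ background.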

Saccharomyces cerevisiae [2] = test: protein stability index of tFT-peptide fusion in deletion strain of DAS1 (PSI (0-1 scale)); higher = more stable (slower turnover)
Method: as §1
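For protein stability index of tFT-peptide fusion in deletion strain of DAS1 in this document: PSI is a weighted mean of each variant's read distribution over the sorted stability bins, computed only for variants having over 10 reads in total.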
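For protein stability index of tFT-peptide fusion in wild type in this document: PSI derived as read-weighted mean over the 8 sorting bins, only variants exceeding 10 total reads kept, mCherry placed adjacent to the peptide and sfGFP distal.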

| Sequence | protein stability index (Saccharomyces cerevisiae [1]) | protein stability index (Saccharomyces cerevisiae [2]) |
| --- | --- | --- |
| AMWRVGLWRGAS | 0.43 | 0.65 |
| AQWRVGLWRGAS | 0.499 | 0.709 |
| ARWREGLWRGAS | 0.673 | 0.695 |
| ARWRVGCWRGAS | 0.524 | 0.637 |
| ARWRVGDWRGAS | 0.665 | 0.714 |
| ARWRVGIWRGAS | 0.344 | 0.691 |
| ARWRVGKWRGAS | 0.327 | 0.687 |
| ARWRVGLCRGAS | 0.657 | 0.671 |
| ARWRVGLHRGAS | 0.63 | 0.685 |
| ARWRVGLIRGAS | 0.561 | 0.665 |
| ARWRVGLWLGAS | 0.467 | 0.618 |
| ARWRVGLWMGAS | 0.622 | 0.667 |
| ARWRVGLWRGAG | 0.254 | 0.64 |
| ARWRVGLWRGAH | 0.536 | 0.688 |
| ARWRVGLWRGASE | 0.663 | 0.666 |
| ARWRVGLWRGASL | 0.719 | 0.715 |
| ARWRVGLWRGASN | 0.658 | 0.689 |
| ARWRVGLWRGASY | 0.653 | 0.69 |
| ARWRVGLWRGDS | 0.667 | 0.688 |

| Sequence | protein stability index (Saccharomyces cerevisiae [1]) | protein stability index (Saccharomyces cerevisiae [2]) |
| --- | --- | --- |
| ARWRVGLWRGMS | 0.202 | 0.663 |
| ARWRVGLWRIAS | 0.088 | 0.677 |
| ARWRVGLWRQAS | 0.0958 | 0.678 |
| ARWRVGLWRVAS | 0.0841 | 0.67 |
| ARWRVGLWYGAS | 0.603 | 0.718 |
| ARWRVGVWRGAS | 0.304 | 0.686 |
| ARWWVGLWRGAS | 0.508 | 0.742 |
| CDSCGYKFRTNN | 0.251 | 0.691 |
| CKHKKGQKQKIN | 0.0815 | 0.568 |
| CTMCGYKFRTNN | 0.236 | 0.69 |
| CTSAGYKFRTNN | 0.303 | 0.678 |
| CTSCGHKFRTNN | 0.256 | 0.706 |
| CTSCGRKFRTNN | 0.456 | 0.717 |
| CTSCGSKFRTNN | 0.549 | 0.692 |
| CTSCGYKFLTNN | 0.332 | 0.696 |
| CTSCGYKFQTNN | 0.175 | 0.723 |
| CTSCGYKFRSNN | 0.508 | 0.715 |
| CTSCGYKFRTGN | 0.581 | 0.701 |
| CTSCGYKFRTNI | 0.601 | 0.701 |
